Tested on: peptide library, one residue held at a place counted from the Y acceptor
Test: relative phosphorylation of the sub-library (ratio to the mean residue at this position); higher = residue favoured
Summary of the method: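 Biotinylated Tyr-centred peptide library mixtures, each fixing one residue at one position from −5 to +5, were incubated with purified recombinant kinases in 384-well plates for 90 min with 50 μM ATP plus γ-32P-ATP. Streptavidin membranes captured the peptides, which were rinsed and quantified by phosphorimaging and ImageQuant. At each position, intensities were divided by the sum of the 18 randomized residues (16 for the Ser/Thr-free library) and multiplied by that number. Each value is phosphorylation relative to the mean randomized residue.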

Chain of KDR, construct: aa789-end, human (P35968 789-1356, looked up): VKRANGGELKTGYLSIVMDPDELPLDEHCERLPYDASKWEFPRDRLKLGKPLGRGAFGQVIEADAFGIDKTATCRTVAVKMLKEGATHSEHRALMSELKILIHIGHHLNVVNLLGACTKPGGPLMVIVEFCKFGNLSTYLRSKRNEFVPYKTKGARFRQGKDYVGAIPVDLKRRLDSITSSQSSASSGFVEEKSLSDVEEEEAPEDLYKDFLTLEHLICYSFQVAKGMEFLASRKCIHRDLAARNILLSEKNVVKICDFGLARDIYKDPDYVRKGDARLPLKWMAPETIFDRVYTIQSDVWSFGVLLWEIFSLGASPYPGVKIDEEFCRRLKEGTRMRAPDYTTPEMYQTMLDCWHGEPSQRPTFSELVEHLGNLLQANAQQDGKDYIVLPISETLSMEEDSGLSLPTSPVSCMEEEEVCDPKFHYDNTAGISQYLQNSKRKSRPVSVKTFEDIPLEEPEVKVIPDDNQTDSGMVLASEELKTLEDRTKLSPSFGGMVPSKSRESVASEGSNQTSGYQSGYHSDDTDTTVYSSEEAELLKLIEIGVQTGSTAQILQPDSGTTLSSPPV
Chain of JAK3, construct: aa795-end, human (P52333 795-1124, looked up): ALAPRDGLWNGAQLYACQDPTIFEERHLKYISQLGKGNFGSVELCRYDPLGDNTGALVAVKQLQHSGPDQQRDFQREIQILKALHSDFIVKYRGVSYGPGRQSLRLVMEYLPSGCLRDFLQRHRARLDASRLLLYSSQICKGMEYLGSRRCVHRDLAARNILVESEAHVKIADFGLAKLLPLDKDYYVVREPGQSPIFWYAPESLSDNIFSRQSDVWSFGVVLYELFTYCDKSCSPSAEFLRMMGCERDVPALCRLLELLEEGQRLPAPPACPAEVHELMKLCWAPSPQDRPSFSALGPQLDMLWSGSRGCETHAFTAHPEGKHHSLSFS

JAK3, construct: aa795-end, human (from UniProt P52333)
relative phosphorylation
Settings | at +1 | at +2 | at +3 | at +4 | at +5 | at -1 | at -2 | at -3 | at -4 | at -5
A fixed | 0.882 | 0.772 | 0.718 | 0.933 | 1.08 | 0.848 | 0.973 | 1.02 | 1.07 | 1.1
D fixed | 0.438 | 0.975 | 0.429 | 0.902 | 0.84 | 3 | 1.02 | 1.3 | 1.08 | 1.09
E fixed | 0.497 | 0.834 | 0.342 | 0.687 | 0.843 | 2.01 | 1.05 | 1.18 | 1.22 | 0.94
F fixed | 2.22 | 1.17 | 1.18 | 1.07 | 0.874 | 0.763 | 0.839 | 0.962 | 1.05 | 1.02
G fixed | 0.36 | 0.532 | 0.643 | 1.08 | 1.1 | 0.699 | 1.24 | 1.07 | 1.07 | 1.2
H fixed | 1.44 | 0.984 | 1.19 | 1.01 | 0.967 | 0.968 | 1.03 | 1.11 | 1.04 | 1.12
I fixed | 1.17 | 0.644 | 1.54 | 0.676 | 0.66 | 0.817 | 0.597 | 0.632 | 0.682 | 0.736
K fixed | 0.436 | 0.82 | 0.794 | 1.29 | 1.24 | 0.493 | 0.982 | 0.857 | 0.91 | 1.12
L fixed | 0.877 | 0.998 | 1.71 | 0.839 | 0.771 | 0.69 | 0.862 | 0.707 | 0.726 | 0.793
M fixed | 1.06 | 1.21 | 1.5 | 0.883 | 0.852 | 0.593 | 0.86 | 0.72 | 0.847 | 0.828
N fixed | 0.54 | 1.17 | 0.7 | 0.965 | 1.22 | 1.31 | 1.31 | 1.41 | 1.04 | 0.946
P fixed | 0.455 | 0.945 | 0.773 | 1.02 | 1.22 | 0.759 | 1.07 | 1.07 | 1.11 | 1.03
Q fixed | 1.04 | 1.02 | 0.883 | 1.22 | 1.13 | 0.874 | 1.31 | 1.15 | 1.11 | 0.971
R fixed | 0.665 | 0.876 | 1.03 | 1.3 | 1.46 | 0.55 | 1.1 | 1.01 | 1.15 | 1.14
S fixed | 0.697 | 0.848 | 0.916 | 1.11 | 1.4 | 0.831 | 1.22 | 1.21 | 1.07 | 1.05
T fixed | 0.73 | 0.902 | 1.15 | 0.972 | 0.959 | 0.935 | 0.989 | 1.07 | 0.839 | 0.973
V fixed | 1.65 | 0.807 | 1.2 | 0.819 | 0.716 | 0.842 | 0.671 | 0.72 | 0.7 | 0.77
W fixed | 2.27 | 2.25 | 1.37 | 1.31 | 1.03 | 0.791 | 1.09 | 1.1 | 1.19 | 1.19
pThr fixed | 0.626 | 1.2 | 0.391 | 0.528 | 0.682 | 2.23 | 1 | 1.16 | 1.01 | 0.871
pTyr fixed | 1.04 | 0.925 | 0.369 | 0.583 | 0.725 | 2.37 | 1.05 | 1.32 | 1.01 | 0.825

KDR, construct: aa789-end, human (from UniProt P35968)
relative phosphorylation
Settings | at +1 | at +2 | at +3 | at +4 | at +5 | at -1 | at -2 | at -3 | at -4 | at -5
A fixed | 0.852 | 0.685 | 0.543 | 0.829 | 0.944 | 0.816 | 0.954 | 0.915 | 1.04 | 1
D fixed | 0.301 | 0.599 | 0.314 | 0.665 | 0.745 | 2.25 | 1.1 | 1.21 | 1.04 | 0.987
E fixed | 0.416 | 0.621 | 0.246 | 0.608 | 0.696 | 1.46 | 1.2 | 1.29 | 1.26 | 0.973
F fixed | 1.6 | 1.34 | 2.2 | 1.1 | 1.04 | 0.846 | 0.617 | 0.819 | 0.818 | 0.816
G fixed | 0.612 | 0.417 | 0.465 | 1.01 | 1.13 | 0.631 | 1.36 | 1.17 | 1.33 | 1.21
H fixed | 1.37 | 0.86 | 0.523 | 0.95 | 0.978 | 1.37 | 1.12 | 1.02 | 0.975 | 1.03
I fixed | 1.22 | 0.919 | 2.05 | 0.733 | 0.86 | 1.05 | 0.546 | 0.573 | 0.741 | 0.756
K fixed | 0.944 | 1.32 | 0.469 | 1.52 | 1.17 | 0.726 | 1.21 | 1.18 | 1.2 | 1.49
L fixed | 1.06 | 1.39 | 2.56 | 0.906 | 0.907 | 0.886 | 0.723 | 0.745 | 0.788 | 0.771
M fixed | 1.17 | 1.06 | 2.1 | 0.996 | 1.04 | 0.654 | 0.645 | 0.699 | 0.826 | 0.857
N fixed | 0.634 | 1.12 | 0.465 | 0.862 | 1.05 | 1.36 | 1.32 | 1.23 | 0.886 | 1.08
P fixed | 0.645 | 0.63 | 0.787 | 1.29 | 1.26 | 0.842 | 1.08 | 1.15 | 1.28 | 1.14
Q fixed | 1.27 | 1.01 | 0.561 | 1.02 | 0.916 | 1.07 | 1.19 | 1.09 | 1.12 | 1.01
R fixed | 1.14 | 1.77 | 0.7 | 1.6 | 1.39 | 0.841 | 1.55 | 1.29 | 1.36 | 1.44
S fixed | 0.712 | 0.921 | 0.599 | 0.982 | 1.09 | 0.671 | 1.14 | 1.05 | 0.856 | 0.973
T fixed | 0.939 | 0.924 | 0.675 | 0.989 | 1.18 | 0.86 | 0.938 | 1.06 | 0.743 | 0.947
V fixed | 1.79 | 1.02 | 1.65 | 0.841 | 0.733 | 0.962 | 0.637 | 0.633 | 0.756 | 0.768
W fixed | 1.31 | 1.39 | 1.09 | 1.09 | 0.872 | 0.689 | 0.658 | 0.883 | 0.991 | 0.761
pThr fixed | 0.636 | 1.09 | 0.307 | 0.54 | 0.602 | 1.64 | 1.14 | 1.41 | 1.1 | 1.25
pTyr fixed | 2.12 | 1.83 | 0.405 | 0.526 | 0.731 | 2.89 | 1.99 | 2.27 | 2.12 | 1.45

From the supplement of paper PMC11136658
